Source: paper PMC9234238

Key:
DLL4-Fc = DLL4-Fc (UniProt Q9JI71); assay: flow cytometry on cells (cell-based binding assay); conditions: read off a plot; for response: HEK293T cells overexpressing N1 without Lfng cDNA, MFI normalised to N1+LFNG = 100%, parent: est. 79; for percent of parent: HEK293T cells overexpressing N1 with Lfng cDNA, N1+LFNG set to 100%, parent: est. 100
DLL1-Fc = DLL1-Fc (UniProt Q61483); assay: flow cytometry on cells (cell-based binding assay); conditions: HEK293T cells overexpressing N1 with Lfng cDNA; N1+LFNG set to 100%; parent: est. 100; read off a plot

Substance | response (DLL4-Fc) | percent of parent (DLL1-Fc) | percent of parent (DLL4-Fc)
full-length mouse NOTCH1 (WT N1), expressed without LFNG (from UniProt Q01705) N1-16V (Thr of the O-fucose site in EGF16 changed to Val; residue number not printed) | 79 MFI(%) |  | 
full-length mouse NOTCH1 (WT N1), coexpressed with LFNG (from UniProt Q01705) N1-27V (Thr of the O-fucose site in EGF27 changed to Val; residue number not printed) |  | 71 MFI(%) | 92 MFI(%)
full-length mouse NOTCH1 (WT N1), coexpressed with LFNG (from UniProt Q01705) N1-26V (Thr of the O-fucose site in EGF26 changed to Val; residue number not printed) |  | 89 MFI(%) | 100 MFI(%)
full-length mouse NOTCH1 (WT N1), expressed without LFNG (from UniProt Q01705) N1-6V (Thr of the O-fucose site in EGF6 changed to Val; residue number not printed) | 75 MFI(%) |  | 

The next lines start with the values.

response (DLL4-Fc) | percent of parent (DLL1-Fc) | percent of parent (DLL4-Fc) | Substance
82 MFI(%) |  |  | full-length mouse NOTCH1 (WT N1), expressed without LFNG (from UniProt Q01705) N1-27V (Thr of the O-fucose site in EGF27 changed to Val; residue number not printed)
85 MFI(%) |  |  | full-length mouse NOTCH1 (WT N1), expressed without LFNG (from UniProt Q01705) N1-26V (Thr of the O-fucose site in EGF26 changed to Val; residue number not printed)
 | 90 MFI(%) | 89 MFI(%) | full-length mouse NOTCH1 (WT N1), coexpressed with LFNG (from UniProt Q01705) N1-16V (Thr of the O-fucose site in EGF16 changed to Val; residue number not printed)
 | 92 MFI(%) | 100 MFI(%) | full-length mouse NOTCH1 (WT N1), coexpressed with LFNG (from UniProt Q01705) N1-6V (Thr of the O-fucose site in EGF6 changed to Val; residue number not printed)
